Experiment [1] addresses T1, human PD-L1-Fc fusion protein (Sino Biological Cat #10084-H02H) (human, UniProt Q9NZQ7 19-239).
T1 construct: bought; not shown: Fc part of the bought fusion
Kind of experiment: BLI (ForteBio), PD-L1-Fc on AHC sensor, Fab in solution. A general note: BLI is a label-free optical method that tracks binding on a fibre tip over time.

Experiment [2] deals with T2, mouse PD-L1-Fc fusion protein (mouse, UniProt Q9EP73 19-238, limits assumed).
T2 construct: not shown: Fc part
T2 sequence (Q9EP73 19-238 limits assumed): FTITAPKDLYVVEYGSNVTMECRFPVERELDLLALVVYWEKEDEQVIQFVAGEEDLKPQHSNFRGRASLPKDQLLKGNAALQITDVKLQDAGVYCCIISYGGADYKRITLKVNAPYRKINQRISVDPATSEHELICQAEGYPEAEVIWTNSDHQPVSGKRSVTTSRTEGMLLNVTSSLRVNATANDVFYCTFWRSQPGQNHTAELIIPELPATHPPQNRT
Nature of the experiment: BLI (ForteBio), PD-L1 on AHC sensor, Fab in solution.

In US20210122824A1 (ADAGENE, published 2021) one finds Kd data, which are given here for 36 molecules.

One may read the Kd as a measure of binding affinity in units of concentration. A low value points to higher affinity.

Numbering of substitutions follows the chain as printed.

T1 sequence (Q9NZQ7 19-239 limits assumed): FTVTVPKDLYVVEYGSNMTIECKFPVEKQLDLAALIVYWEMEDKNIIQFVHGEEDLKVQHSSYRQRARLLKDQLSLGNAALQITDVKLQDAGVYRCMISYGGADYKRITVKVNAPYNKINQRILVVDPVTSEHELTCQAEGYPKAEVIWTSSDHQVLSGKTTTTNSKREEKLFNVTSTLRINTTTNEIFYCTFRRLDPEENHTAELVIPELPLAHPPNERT

B1: B13002 (Fab, V domains shown)
VH: EVQLVESGGGLVQPGGSLRLSCAASGYTFSNYGIHWVRQAPGKGLEWIGWIYPSGGGTKYAQKFQGRVTISRDNSKNTLYLQLNSLRAEDTAVYYCAREGGGYGYALDYWGQGTLVTVSS
VL: DIQLTQSPSSLSASVGDRVTITCRASQGVSSYLAWYQQKPGKAPKLLIYDASNLETGVPSRFSGSGSGTDFTLTISSLQPEDFATYYCQQYDAWPYTFGQGTKVEIKR
notes: Fab from E. coli
B1 returned a Kd in experiment [1] of 0.251 nM.

B2: B14622 (Fab, V domains shown)
VH: B1 VH
VL: DIQLTQSPSSLSASVGDRVTITCRASQSVDFYGKSFLDWYQQKPGKAPKLLIYDASNRATGIPSRFSGSGSGTDFTLTISSLQPEDFATYYCQQYDSWPYTFGQGTKVEIKR
notes: Fab from E. coli
With B2, binding in experiment [1] was characterised by a dissociation constant (Kd) of 0.274 nM.

B3: B14638 (Fab, V domains shown)
VH: B1 VH
VL: DIQLTQSPSSLSASVGDRVTITCRASQSVGSIYLGWYQQKPGKAPKLLIYDASNRATGIPSRFSGSGSGTDFTLTISSLQPEDFATYYCQQYDSWPYTFGQGTKVEIKR
notes: Fab from E. coli
B3 gave a Kd in experiment [1] of 0.314 nM.

B4: B14642 (Fab, V domains shown)
VH: B1 VH
VL: B2 VL with D38A, N57S, R58L, A59E, T60S, I62V, S97A
notes: Fab from E. coli
As for B4, in experiment [1], the Kd was found to be 0.189 nM.

B5: B14654 (Fab, V domains shown)
VH: B1 VH
VL: B1 VL with G28S, S31P, L54R, E55A, V58I
notes: Fab from E. coli
B5 gave an equilibrium dissociation constant (Kd) in experiment [1] of 0.232 nM.

B6: B14644 (Fab, V domains shown)
VH: B1 VH
VL: B2 VL with Q27E, D38A, S97Y
notes: Fab from E. coli
In experiment [1], B6 gave a dissociation constant (Kd) of 0.248 nM.

B7: B14645 (Fab, V domains shown)
VH: B1 VH
VL: B2 VL with R58L, A59E, I62V, S97A
notes: Fab from E. coli
B7: the Kd in experiment [1] came to 0.296 nM.

B8: B14673 (Fab, V domains shown)
VH: B1 VH
VL: B2 VL with Q27E, D38A, N57S, R58L, A59E, T60S, I62V
notes: Fab from E. coli
B8 yielded a Kd in experiment [1] of 0.323 nM.

B9: B13005 (Fab, V domains shown)
VH: B1 VH
VL: B1 VL with G28S
notes: Fab from E. coli
B9 came in with a Kd in experiment [1] of 0.346 nM.

B10: B14651 (Fab, V domains shown)
VH: B1 VH
VL: B2 VL with Q27E, Y32H, D38A, S97H
notes: Fab from E. coli
B10 had a Kd in experiment [1] of 0.301 nM.

B11: B14615 (Fab, V domains shown)
VH: B1 VH
VL: B2 VL with D38A, N57S, R58L, A59E, T60S, I62V, S97H
notes: Fab from E. coli
On to B11, for which, in experiment [1], the equilibrium dissociation constant (Kd) is 0.228 nM.

B12: B13004 (Fab, V domains shown)
VH: B1 VH
VL: B1 VL with V29I, S31P, Y32W, L54R, E55A, V58I, A93S
notes: Fab from E. coli
B12 gave a Kd in experiment [1] of 0.3 nM.

B13: B14633 (Fab, V domains shown)
VH: B1 VH
VL: B2 VL with Q27E, Y32H, K34I, D38A, S97H
notes: Fab from E. coli
In experiment [1], B13 registered a Kd of 0.322 nM.

B14: B14690 (Fab, V domains shown)
VH: B1 VH
VL: B2 VL with Y32H, K34I, R58L, A59E, I62V
notes: Fab from E. coli
In experiment [1], B14 displayed a Kd of 0.467 nM.

B15: B14033 (Fab, V domains shown)
VH: B1 VH
VL: B1 VL with V29I, S30G, Y32F, N53S, T56S, A93Y
notes: Fab from E. coli
Molecule B15 returned a Kd in experiment [1] of 0.875 nM.

B16: B14674 (Fab, V domains shown)
VH: B1 VH
VL: B1 VL with G28S, V29I, S30E, S31K, Y32W, N53S, T56S
notes: Fab from E. coli
B16 came in with a Kd in experiment [1] of 0.502 nM.

B17: B14631 (Fab, V domains shown)
VH: B1 VH
VL: B2 VL with Q27E, Y32F, D38A, R58L, A59E, I62V, S97H
notes: Fab from E. coli
On to B17, for which, in experiment [1], the affinity, expressed as Kd, was 0.183 nM.

B18: B14617 (Fab, V domains shown)
VH: B1 VH
VL: B2 VL with Q27E, Y32F, D38A, N57S, R58L, A59E, T60S, I62V
notes: Fab from E. coli
As for B18, the Kd in experiment [1] was 0.288 nM.

B19: B14681 (Fab, V domains shown)
VH: B1 VH
VL: B2 VL with Y32H, K34I, S97H
notes: Fab from E. coli
The molecule B19 registered a Kd in experiment [1] of 0.543 nM.

B20: B14614 (Fab, V domains shown)
VH: B1 VH
VL: B2 VL with Q27E
notes: Fab from E. coli
As to B20, in experiment [1], the Kd stood at 0.353 nM.

B21: B14652 (Fab, V domains shown)
VH: B1 VH
VL: B1 VL with S31P, Y32W, N53S, T56S
notes: Fab from E. coli
Consider B21, for which binding in experiment [1] was characterised by a dissociation constant (Kd) of 0.294 nM.

B22: B14634 (Fab, V domains shown)
VH: B1 VH
VL: B1 VL with G28S, S31P
notes: Fab from E. coli
On to B22, for which the Kd in experiment [1] was found to be 0.207 nM.

B23: B14665 (Fab, V domains shown)
VH: B1 VH
VL: B2 VL with D38A, N57S, R58L, A59E, T60S, I62V
notes: Fab from E. coli
Molecule B23 came in with a Kd in experiment [1] of 0.369 nM.

B24: B14658 (Fab, V domains shown)
VH: B1 VH
VL: B2 VL with Y32H
notes: Fab from E. coli
As to B24, in experiment [1], binding was characterised by a dissociation constant (Kd) of 0.142 nM.

B25: B14650 (Fab, V domains shown)
VH: B1 VH
VL: B2 VL with Q27E, S97H
notes: Fab from E. coli
Molecule B25 registered a Kd in experiment [1] of 0.357 nM.

B26: B14689 (Fab, V domains shown)
VH: B1 VH
VL: B2 VL with N57S, R58L, A59E, T60S, I62V, S97H
notes: Fab from E. coli
B26: binding in experiment [1] was put at a Kd of 0.163 nM.

B27: B14627 (Fab, V domains shown)
VH: B1 VH
VL: B1 VL with G28S, Y32W, N53S, T56S, A93S
notes: Fab from E. coli
Consider B27, for which the affinity in experiment [1], expressed as Kd, was 0.182 nM.

B28: B15016 (Fab, V domains shown)
VH: EVQLVESGGGLVQPGGSLRLSCAASGYSISSGYYWGWIRQAPGKGLEWIGIIYPSGGGTNYAQKFQGRVTISRDNSKNTLYLQLNSLRAEDTAVYYCARGGGLGFDYWGQGTLVTVSS
VL: DIQLTQSPSSLSASVGDRVTITCRASQTIPSFLNWYQQKPGKAPKLLIYAASSLQSGVPSRFSGSGSGTDFTLTISSLQPEDFATYYCQHYTSWPRQFTFGQGTKVEIKR
notes: Fab from E. coli
As for B28, the Kd in experiment [2] worked out at 2.84 nM; in experiment [1], 3.56 nM.

B29: B15041 (Fab, V domains shown)
VH: B28 VH
VL: B28 VL with T28S, T92I
notes: Fab from E. coli
In the case of B29, the Kd in experiment [2] came out at 1.67 nM; in experiment [1], 1.68 nM.

B30: B15024 (Fab, V domains shown)
VH: B28 VH
VL: B28 VL with T28S, S31T, S53T, T92V, Q97L
notes: Fab from E. coli
With B30, the results for the dissociation constant Kd in experiment [2] and in experiment [1] were 3.48 nM and 4.52 nM, respectively.

B31: B14032 (Fab, V domains shown)
VH: B28 VH
VL: B28 VL with R24Q, T28D, S31T, N34A, H90Q, T92V, Q97G
notes: Fab from E. coli
Regarding B31, the Kd in experiment [2] stood at 4.84 nM; in experiment [1], 5.11 nM.

B32: B15012 (Fab, V domains shown)
VH: B28 VH
VL: B28 VL with S53T, T92S, Q97G
notes: Fab from E. coli
Regarding B32, the dissociation constant (Kd) in experiment [2] stood at 2.03 nM; in experiment [1], 1.76 nM.

B33: B15074 (Fab, V domains shown)
VH: B28 VH
VL: B28 VL with S53T, T92I, Q97V
notes: Fab from E. coli
As to B33, the Kd in experiment [2] stood at 2.98 nM; in experiment [1], 4.31 nM.

B34: B15014 (Fab, V domains shown)
VH: B28 VH
VL: B28 VL with T28D, S31K, N34A, S53T, T92V
notes: Fab from E. coli
As to B34, the figures for the Kd in experiment [2] and in experiment [1] were 3.87 nM and 2.43 nM, respectively.

B35: B15022 (Fab, V domains shown)
VH: B28 VH
VL: B28 VL with T28S, S53T, H90Q, T92S, Q97L
notes: Fab from E. coli
B35: the Kd came out at 3.03 nM in experiment [2] and 3.68 nM in experiment [1].

B36: B15082 (Fab, V domains shown)
VH: B28 VH
VL: B28 VL with T92G, Q97R
notes: Fab from E. coli
Turning to B36, the Kd stood at 3.23 nM in experiment [2] and 4.79 nM in experiment [1].
